Patent US20090017041A1

Columns and labels:
[1] = biological target: oligomer-enriched preparation of the Aβ1-42 peptide (Example 16); test: ELISA, fraction coated at 2.2 µM; assay 1; antibody dilution 1:32 (start 0.5 µg/ml)
[2] = biological target: monomer-enriched preparation of the Aβ1-42 peptide (Example 16); test: as above
[3] = biological target: high molecular weight (HMW) proto-fibrillar (PF) oligomer enriched preparation of the Aβ1-42 peptide (Example 15) (human); test: ELISA, fraction coated at 2 µM; antibody 0.0313 µg/ml
Chain of high molecular weight (HMW) proto-fibrillar (PF) oligomer enriched preparation of the Aβ1-42 peptide (Example 15) (human) (peptide, as listed by the source): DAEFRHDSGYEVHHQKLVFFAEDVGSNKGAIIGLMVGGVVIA

[4] = biological target: low molecular weight (LMW) monomeric preparation of the Aβ1-42 peptide (Example 15) (human); test: as above
Chain of low molecular weight (LMW) monomeric preparation of the Aβ1-42 peptide (Example 15) (human) (peptide, as listed by the source): as above

[5] = biological target: high molecular weight (HMW) proto-fibrillar (PF) oligomer enriched preparation of the Aβ1-42 peptide (Example 15) (human); test: ELISA, fraction coated at 2 µM; antibody 0.125 µg/ml
[6] = biological target: low molecular weight (LMW) monomeric preparation of the Aβ1-42 peptide (Example 15) (human); test: as above
[7] = biological target: oligomer-enriched preparation of the Aβ1-42 peptide (Example 16); test: ELISA, fraction coated at 2.2 µM; assay 3; antibody dilution 1:4 (start 0.5 µg/ml)
[8] = biological target: monomer-enriched preparation of the Aβ1-42 peptide (Example 16); test: as above
[9] = biological target: oligomer-enriched preparation of the Aβ1-42 peptide (Example 16); test: ELISA, fraction coated at 2.2 µM; assay 3; antibody dilution 1:2 (start 0.5 µg/ml)
[10] = biological target: monomer-enriched preparation of the Aβ1-42 peptide (Example 16); test: as above
[11] = biological target: high molecular weight (HMW) proto-fibrillar (PF) oligomer enriched preparation of the Aβ1-42 peptide (Example 15) (human); test: ELISA, fraction coated at 2 µM; antibody 0.0078 µg/ml
[12] = biological target: low molecular weight (LMW) monomeric preparation of the Aβ1-42 peptide (Example 15) (human); test: as above
[13] = biological target: oligomer-enriched preparation of the Aβ1-42 peptide (Example 16); test: ELISA, fraction coated at 2.2 µM; assay 1; antibody dilution 1:128 (start 0.5 µg/ml)
[14] = biological target: monomer-enriched preparation of the Aβ1-42 peptide (Example 16); test: as above
[15] = biological target: oligomer-enriched preparation of the Aβ1-42 peptide (Example 16); test: ELISA, fraction coated at 2.2 µM; assay 2; antibody dilution 1:64 (start 0.5 µg/ml)
[16] = biological target: monomer-enriched preparation of the Aβ1-42 peptide (Example 16); test: as above
[17] = biological target: oligomer-enriched preparation of the Aβ1-42 peptide (Example 16); test: ELISA, fraction coated at 2.2 µM; antibody dilution 1:1 (start 0.5 µg/ml)
[18] = biological target: monomer-enriched preparation of the Aβ1-42 peptide (Example 16); test: as above
[19] = biological target: oligomer-enriched preparation of the Aβ1-42 peptide (Example 16); test: ELISA, fraction coated at 2.2 µM; antibody dilution 1:16 (start 0.5 µg/ml)
[20] = biological target: monomer-enriched preparation of the Aβ1-42 peptide (Example 16); test: as above
[21] = biological target: oligomer-enriched preparation of the Aβ1-42 peptide (Example 16); test: ELISA, fraction coated at 2.2 µM; assay 2; antibody dilution 1:128 (start 0.5 µg/ml)
[22] = biological target: monomer-enriched preparation of the Aβ1-42 peptide (Example 16); test: as above
[23] = biological target: oligomer-enriched preparation of the Aβ1-42 peptide (Example 16); test: ELISA, fraction coated at 2.2 µM; antibody dilution 1:2 (start 0.5 µg/ml)
[24] = biological target: oligomer-enriched preparation of the Aβ1-42 peptide (Example 16); test: ELISA, fraction coated at 2.2 µM; antibody dilution 1:4 (start 0.5 µg/ml)
[25] = biological target: monomer-enriched preparation of the Aβ1-42 peptide (Example 16); test: as above
[26] = biological target: high molecular weight (HMW) proto-fibrillar (PF) oligomer enriched preparation of the Aβ1-42 peptide (Example 15) (human); test: ELISA, fraction coated at 2 µM; antibody 0.0156 µg/ml
[27] = biological target: low molecular weight (LMW) monomeric preparation of the Aβ1-42 peptide (Example 15) (human); test: as above
[28] = biological target: oligomer-enriched preparation of the Aβ1-42 peptide (Example 16); test: ELISA, fraction coated at 2.2 µM; assay 3; antibody dilution 1:64 (start 0.5 µg/ml)
[29] = biological target: monomer-enriched preparation of the Aβ1-42 peptide (Example 16); test: as above
[30] = biological target: oligomer-enriched preparation of the Aβ1-42 peptide (Example 16); test: ELISA, fraction coated at 2.2 µM; assay 1; antibody dilution 1:16 (start 0.5 µg/ml)
[31] = biological target: monomer-enriched preparation of the Aβ1-42 peptide (Example 16); test: as above
[32] = biological target: oligomer-enriched preparation of the Aβ1-42 peptide (Example 16); test: ELISA, fraction coated at 2.2 µM; assay 2; antibody dilution 1:1 (start 0.5 µg/ml)
[33] = biological target: monomer-enriched preparation of the Aβ1-42 peptide (Example 16); test: as above

Chain of monomer-enriched preparation of the Aβ1-42 peptide (Example 16) (peptide, as listed by the source): as above
Chain of oligomer-enriched preparation of the Aβ1-42 peptide (Example 16) (peptide, as listed by the source): as above

6E10 control antibody gave an O.D. (405 nm) [1] of 1.27 O.D, an O.D. (405 nm) [2] of 1.18 O.D and an O.D. (405 nm) [3] of 0.286 O.D. The O.D. (405 nm) [4] was 0.329 O.D, the O.D. (405 nm) [5] was 0.863 O.D and the O.D. (405 nm) [6] was 0.999 O.D. It also gave an O.D. (405 nm) [7] of 3.64 O.D, an O.D. (405 nm) [8] of 3.52 O.D and an O.D. (405 nm) [9] of 3.83 O.D. It also gave an O.D. (405 nm) [10] of 4 O.D, an O.D. (405 nm) [11] of 0.116 O.D and an O.D. (405 nm) [12] of 0.133 O.D. It also gave an O.D. (405 nm) [13] of 0.62 O.D, an O.D. (405 nm) [14] of 0.64 O.D and an O.D. (405 nm) [15] of 0.88 O.D. It also gave an O.D. (405 nm) [16] of 0.94 O.D, an O.D. (405 nm), mean of 3 assays [17] of 3.64 O.D and an O.D. (405 nm), mean of 3 assays [18] of 3.83 O.D. For the same substance, the O.D. (405 nm), mean of 3 assays [19] was 1.92 O.D, the O.D. (405 nm), mean of 3 assays [20] was 1.98 O.D and the O.D. (405 nm) [21] was 0.61 O.D. For the same substance, the O.D. (405 nm) [22] was 0.75 O.D, the O.D. (405 nm), mean of 3 assays [23] was 3.59 O.D and the O.D. (405 nm), mean of 3 assays [24] was 3.37 O.D. For the same substance, the O.D. (405 nm), mean of 3 assays [25] was 3.27 O.D, the O.D. (405 nm) [26] was 0.201 O.D and the O.D. (405 nm) [27] was 0.207 O.D. It also gave an O.D. (405 nm) [28] of 0.95 O.D, an O.D. (405 nm) [29] of 1.08 O.D and an O.D. (405 nm) [30] of 1.78 O.D. The O.D. (405 nm) [31] was 1.78 O.D, the O.D. (405 nm) [32] was 3.67 O.D and the O.D. (405 nm) [33] was 3.77 O.D.
